Tests used:
Experiment in all cases: co-IP; mCherry-Rac1 transiently expressed in HEK293T for 16 h, precipitated with the RFP-TRAP kit (Chromotek); endogenous RhoGDI by Western blot, quantified (n = 3)
mCherry-Rac1 F28L = mCherry-Rac1 F28L (UniProt P63000)
mCherry-Rac1 G12V = mCherry-Rac1 G12V (UniProt P63000)
mCherry-Rac1 Y64F = mCherry-Rac1 Y64F (UniProt P63000)
mCherry-Rac1 P29S = mCherry-Rac1 P29S (UniProt P63000)

Measured: reduction of co-precipitated GDI against Rac1 WT

RhoGDI (endogenous, HEK293T) (from UniProt P52565 1-204) (natural protein)
50%: all assays above
